Source: patent US20050187147A1 (published 2005)
Square brackets hold non-standard residues; d marks the D form. Primed or numbered codes have the meaning given here. * marks the point of attachment. 10Ca = carbamate linkage conjugating the peptide-PEG to paclitaxel at C10; ALK(6) = not defined here; 10Es = not defined here; Cbz = O=C(OCc1ccccc1)*; PEG(13) = PEG13 linker; Piv = CC(C)(C)C(=O)*; OBn = c1ccc(CO*)cc1; PXL = paclitaxel

The binders below were run against Human Src kinase (Upstate #14-326) (human, UniProt P12931 1-536) (assay: cell-based or functional assay).

Average src kinase activity, 0 % of parent peptide activity:
Ac-EYI[dY]GSFK-{PEG(13)-10Ca-PXL} [Ac-EYIyGSFK-PEG(13)-10Ca-PXL]
Piv-YIFGSFR-{PEG(13)-10Ca-PXL} [Pv-YIFGSFR-PEG(13)-10Ca-PXL]
Ac-EYIFGSFK-{PEG(13)-10Ca-PXL} [Ac-EYIFGSFK-PEG(13)-10Ca-PXL]
Ac-E(OBn)YIYGSFK(Cbz)-{PEG(13)-10Ca-PXL} [Ac-E(Bzl)YIYGSFK(CBz)-PEG(13)-10Ca-PXL]
Cbz-YIYGSFK(Cbz)-{ALK(6)-10Es-PXL} (reading uncertain) [CBz-YIYGSFK(CBz)-ALK(6)-10Es-PXL]
